Patent US20240018260A1 (AMUNIX PHARMACEUTICALS, published 2024)

T1: human EpCAM on EpCAM positive human carcinoma cells (SW480, SK-OV-3) (human, UniProt P16422 24-314)
T1 sequence (looked up): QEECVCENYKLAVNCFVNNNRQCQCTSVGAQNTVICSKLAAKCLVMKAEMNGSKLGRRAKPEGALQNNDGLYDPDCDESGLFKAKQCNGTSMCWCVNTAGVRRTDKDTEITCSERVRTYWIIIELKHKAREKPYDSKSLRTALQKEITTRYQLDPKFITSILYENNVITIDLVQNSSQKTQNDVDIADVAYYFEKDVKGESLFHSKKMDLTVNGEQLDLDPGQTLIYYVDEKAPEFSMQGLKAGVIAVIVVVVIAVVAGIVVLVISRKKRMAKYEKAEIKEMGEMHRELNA

T2: recombinant human EpCAM (rhEpCAM) (human, UniProt P16422 24-265)
T2 construct: Bought recombinant protein coated on the ELISA plate
T2 sequence (looked up): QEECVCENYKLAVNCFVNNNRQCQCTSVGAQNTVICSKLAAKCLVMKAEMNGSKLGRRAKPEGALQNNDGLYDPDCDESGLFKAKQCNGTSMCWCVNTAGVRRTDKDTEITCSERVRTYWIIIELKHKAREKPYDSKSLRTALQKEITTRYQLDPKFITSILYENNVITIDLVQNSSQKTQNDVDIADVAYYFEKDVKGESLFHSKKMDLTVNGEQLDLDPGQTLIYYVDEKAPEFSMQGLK

T3: recombinant human CD3 (rhCD3εδ) (human, UniProt P07766 23-126; P04234 22-105)
T3 chain: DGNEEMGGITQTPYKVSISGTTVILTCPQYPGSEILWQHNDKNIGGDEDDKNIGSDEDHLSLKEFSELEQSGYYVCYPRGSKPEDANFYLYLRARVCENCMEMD

B1: AC1484, non-cleavable anti-EpCAM×anti-CD3 ProTIA (without the release segment cleavage sequence) (bispecific antibody)
chain: DIQMTQSPSSLSASVGDRVTITCRSTKSLLHSNGITYLYWYQQKPGKAPKLLIYQMSNLASGVPSRFSSSGSGTDFTLTISSLQPEDFATYYCAQNLEIPRTFGQGTKVEIKGATPPETGAETESPGETTGGSAESEPPGEGQVQLVQSGPGLVQPGGSVRISCAASGYTFTNYGMNWVKQAPGKGLEWMGWINTYTGESTYADSFKGRFTFSLDTSASAAYLQINSLRAEDTAVYYCARFAIKGDYWGQGTLLTVSSGGGGSDIQMTQSPSSLSASVGDRVTITCRASQDIRNYLNWYQQKPGKAPKLLIYYTSRLESGVPSRFSGSGSGTDYTLTISSLQPEDFATYYCQQGNTLPWTFGQGTKVEIKGATPPETGAETESPGETTGGSAESEPPGEGEVQLVESGGGLVQPGGSLRLSCAASGYSFTGYTMNWVRQAPGKGLEWVALINPYKGVSTYNQKFKDRFTISVDKSKNTAYLQMNSLRAEDTAVYYCARSGYYGDSDWYFDVWGQGTLVTVSSGSPGSPAGSPTSTEEGTSESATPESGPGTSTEPSEGSAPGSPAGSPTSTEEGTSTEPSEGSAPGTSTEPSEGSAPGTSESATPESGPGSEPATSGSETPGSEPATSGSETPGSPAGSPTSTEEGTSESATPESGPGTSTEPSEGSAPGTSTEPSEGSAPGSPAGSPTSTEEGTSTEPSEGSAPGTSTEPSEGSAPGTSESATPESGPGTSTEPSEGSAPGTSESATPESGPGSEPATSGSETPGTSTEPSEGSAPGTSTEPSEGSAPGTSESATPESGPGTSESATPESGPGSPAGSPTSTEEGTSESATPESGPGSEPATSGSETPGTSESATPESGPGTSTEPSEGSAPGTSTEPSEGSAPGTSTEPSEGSAPGTSTEPSEGSAPGTSTEPSEGSAPGTSTEPSEGSAPGSPAGSPTSTEEGTSTEPSEGSAPGTSESATPESGPGSEPATSGSETPGTSESATPESGPGSEPATSGSETPGTSESATPESGPGTSTEPSEGSAPGTSESATPESGPGSPAGSPTSTEEGSPAGSPTSTEEGSPAGSPTSTEEGTSESATPESGPGTSTEPSEGSAPGTSESATPESGPGSEPATSGSETPGTSESATPESGPGSEPATSGSETPGTSESATPESGPGTSTEPSEGSAPGSPAGSPTSTEEGTSESATPESGPGSEPATSGSETPGTSESATPESGPGSPAGSPTSTEEGSPAGSPTSTEEGTSTEPSEGSAPGTSESATPESGPGTSESATPESGPGTSESATPESGPGSEPATSGSETPGSEPATSGSETPGSPAGSPTSTEEGTSTEPSEGSAPGTSTEPSEGSAPGSEPATSGSETPGTSESATPESGPGTSTEPSEGSAPGHHHHHH
notes: also called non-cleavable ProTIA; protease-noncleavable anti-EpCAM×anti-CD3 ProTIA
B2: AC1476 aEpCAM-aCD3-BSRS1-XTEN_AE864-His(6), protease-untreated (intact) anti-EpCAM×anti-CD3 ProTIA (bispecific antibody)
chain: DIQMTQSPSSLSASVGDRVTITCRSTKSLLHSNGITYLYWYQQKPGKAPKLLIYQMSNLASGVPSRFSSSGSGTDFTLTISSLQPEDFATYYCAQNLEIPRTFGQGTKVEIKGATPPETGAETESPGETTGGSAESEPPGEGQVQLVQSGPGLVQPGGSVRISCAASGYTFTNYGMNWVKQAPGKGLEWMGWINTYTGESTYADSFKGRFTFSLDTSASAAYLQINSLRAEDTAVYYCARFAIKGDYWGQGTLLTVSSGGGGSDIQMTQSPSSLSASVGDRVTITCRASQDIRNYLNWYQQKPGKAPKLLIYYTSRLESGVPSRFSGSGSGTDYTLTISSLQPEDFATYYCQQGNTLPWTFGQGTKVEIKGATPPETGAETESPGETTGGSAESEPPGEGEVQLVESGGGLVQPGGSLRLSCAASGYSFTGYTMNWVRQAPGKGLEWVALINPYKGVSTYNQKFKDRFTISVDKSKNTAYLQMNSLRAEDTAVYYCARSGYYGDSDWYFDVWGQGTLVTVSSGTAEAASASGLSGRSDNHSPLGLAGSPGSPAGSPTSTEEGTSESATPESGPGTSTEPSEGSAPGSPAGSPTSTEEGTSTEPSEGSAPGTSTEPSEGSAPGTSESATPESGPGSEPATSGSETPGSEPATSGSETPGSPAGSPTSTEEGTSESATPESGPGTSTEPSEGSAPGTSTEPSEGSAPGSPAGSPTSTEEGTSTEPSEGSAPGTSTEPSEGSAPGTSESATPESGPGTSTEPSEGSAPGTSESATPESGPGSEPATSGSETPGTSTEPSEGSAPGTSTEPSEGSAPGTSESATPESGPGTSESATPESGPGSPAGSPTSTEEGTSESATPESGPGSEPATSGSETPGTSESATPESGPGTSTEPSEGSAPGTSTEPSEGSAPGTSTEPSEGSAPGTSTEPSEGSAPGTSTEPSEGSAPGTSTEPSEGSAPGSPAGSPTSTEEGTSTEPSEGSAPGTSESATPESGPGSEPATSGSETPGTSESATPESGPGSEPATSGSETPGTSESATPESGPGTSTEPSEGSAPGTSESATPESGPGSPAGSPTSTEEGSPAGSPTSTEEGSPAGSPTSTEEGTSESATPESGPGTSTEPSEGSAPGTSESATPESGPGSEPATSGSETPGTSESATPESGPGSEPATSGSETPGTSESATPESGPGTSTEPSEGSAPGSPAGSPTSTEEGTSESATPESGPGSEPATSGSETPGTSESATPESGPGSPAGSPTSTEEGSPAGSPTSTEEGTSTEPSEGSAPGTSESATPESGPGTSESATPESGPGTSESATPESGPGSEPATSGSETPGSEPATSGSETPGSPAGSPTSTEEGTSTEPSEGSAPGTSTEPSEGSAPGSEPATSGSETPGTSESATPESGPGTSTEPSEGSAPGHHHHHH
notes: also called ProTIA-X; protease-untreated anti-EpCAM×anti-CD3 ProTIA

How the values were obtained:
[1] = biological target: human CD3 on purified human CD3 positive T cells (human, UniProt P07766 23-207); test: cell-based or functional assay
[2] = biological target: T1, human EpCAM on EpCAM positive human …; test: cell-based or functional assay
[3] = biological target: T2, recombinant human EpCAM (rhEpCAM); test: sandwich ELISA: rhEpCAM coated on plate, detection with peroxidase-conjugated protein L
Method: The binding capability of anti-EpCAM×anti-CD3 ProTIA composition was verified with an EpCAM/peroxidase-conjugated protein-L sandwich ELISA. In the ELISA binding assay, recombinant human EpCAM (rhEpCAM) (Sino BiologicalR&D Systems cat #10694-H08H960-EP-50) was coated on a 96-well, flat-bottomed plate at a concentration of 0.1 microg/100 microL. After overnight incubation at 4° C., the assay plate was washed and blocked with 3% bovine serum albumin (BSA) for 1 h at room temperature. The plate was washed again followed by the introduction of a dose range of non-cleavable anti-EpCAM×anti-CD3 ProTIA (i.e., a ProTIA without the release segment cleavage sequence and AC1484, a ProTIA chimeric polypeptide assembly composition) and protease-treated and protease-untreated anti-EpCAM×anti-CD3 ProTIA (e.g. AC1476). The dose range utilized for non-cleavable and protease-treated and untreated ProTIA was 0.0006 to 5 nM, achieved with a 1:6 fold serial dilution scheme from a starting concentration of 5 nM. The plate was allowed to incubate with shaking for 1 h at room temperature to allow the non-cleavable, protease-cleaved and uncleaved ProTIA to bind to the rhEpCAM coated on the plate. Unbound components were removed with a wash step and a peroxidase-conjugated protein L (PierceThermoFisher Scientific cat #32420) was added. After an appropriate incubation period that allowed protein-L to bind to the kappa light of the scFvs, any unbound reagent was removed by a wash step followed by the addition of tetramethylbenzidine (TMB) substrate to each well. TMB is a chromogenic substrate of peroxidase. After desired color intensity was reached, 0.2 N sulfuric acid was added to stop the reaction and absorbance (OD) was measured at 450 nm using a spectrophotometer. The intensity of the color is proportional to the concentration of non-cleavable, protease-treated and untreated anti-EpCAM×anti-CD3 ProTIA captured by the rhEpCAM/protein-L sandwich ELISA. The intensity of the color produced (measured OD) was plotted against protein concentration; and the concentration of non-cleavable, protease-cleaved and uncleaved anti-EpCAM×anti-CD3 ProTIA that gave half-maximal response (EC₅₀) was derived with a 4-parameter logistic regression equation using GraphPad prism software.

[4] = biological target: T3, recombinant human CD3 (rhCD3εδ); test: sandwich ELISA: rhCD3εδ coated on plate, detection with peroxidase-conjugated protein L

| Binder | EC50, LDH release cytotoxicity, purified human CD3 positive T cells:OVCAR-3 5:1 [1] [nM] | EC50, LDH release cytotoxicity, purified human CD3 positive T cells:SK-OV-3 5:1 [1] [nM] | EC50, LDH release cytotoxicity, PBMC:SK-OV-3 5:1 [2] [nM] | EC50 [3] [nM] | EC50 [4] [nM] | fold hindrance of binding by XTEN864, against protease-treated ProTIA [3] [fold] | fold hindrance of binding by XTEN864, against the cleaved and released anti-CD3scFv portion [4] [fold] |
| --- | --- | --- | --- | --- | --- | --- | --- |
| B1 | 0.086 | 2.66 | 1.79 | 0.32 | 2.2 |  |  |
| B2 | 0.0007 | 0.134 | 0.136 | 0.28 | 1.8 | ≥ 2.3 | ~5.8 |
